Laboratory results: the supplement of paper PMC12764529
± gives the half width of the 95% confidence interval.

assay: folding stability dG unfold (combined trypsin and chymotrypsin); higher = more stable
Procedure, shortened: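 Mini-proteins designed to be under 80 residues and free of cysteine were carried in a PA-tagged cDNA display construct and digested with trypsin and with chymotrypsin. Each protease was applied at 11 threefold-diluted concentrations, alongside a no-protease condition, before sequencing. K50 came from Bayesian fitting of the sequencing counts, and unfolding free energy was obtained by comparing it with a sequence-predicted unfolded-state K50 and a shared folded-state K50, for each protease separately or for both together. Designs were retained only if their AlphaFold2 dimer inter-PAE exceeded 15.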

First: SAGGSAGGSAGGSSSSLTPIGSSEKLEKLPDSSLRLVTTTTYRDPVTGETSTTTTVTLTDSAGGSAGGSAGG [r7_546_JUSTAS]
Second: SAGGSAGGSAGGAPEVKRVLVLVEVEVKPGDTIELPEGARVIWDPKTRRLYVLVEVELRPSAGGSAGGSAGG [r7_584_TrROS_Hall]
The “folding stability dG unfold” value of the first is lower: 0.487 ± 0.052 kcal/mol for the first, 3.38 ± 0.13 kcal/mol for the second.

Going from “SAGGSAGGEYELLTFTLEFEVPPEVEHVEFEAELEDFDEILEVRARPDPETGTVRVEIVARARPSAGGSAGG [r6_712_TrMRF]” to “SAIVIPIRVQMPPNDPDALEQAKEIADYIADMMMEEGYPFKIEVDDIEWERNPNGHWTVEIPIKIKPPPSAG [r14_48_TrROS]”, the “folding stability dG unfold” value falls from 2.28 ± 0.19 kcal/mol to 1.38 ± 0.15 kcal/mol.

Compared with “SAEPKRYYALVVKRPDGKWLVFYFEDVEEGRERFEEFLRKEFPEDFEVELFEVEPSEAESIEKLLEALGSAG [r14_900_TrMRF]”, “SAGGSAGGSAGGAEKFKVLSVSWDLGKGKRYGVLEVERPDGPLLTIVVPLSYPDKLKELASAGGSAGGSAGG [r7_365_TrMRF]” is lower in “folding stability dG unfold” value: 4.61 ± 0.17 kcal/mol for the first, 1.02 ± 0.22 kcal/mol for the second.

First: SAGPYVMIRIKWPGGEELSIPIPGAKITDVERDGDHITFMFDSPPAAEDIKEEIEDHFPGLKIEIQPIDSAG [r5_453_TrROS]
Second: SAGGSAGGSAGGDSMSYDPKLVEEPVVEVFDGPVLVRVTEVTLPNGKKLTTTEELPPGLESAGGSAGGSAGG [r7_846_JUSTAS]
The “folding stability dG unfold” value of the first is higher: 0.881 ± 0.14 kcal/mol for the first, 0.546 ± 0.09 kcal/mol for the second.

Compared with “SAGGAPTVELKTETIETEDGTYLVVEAKVPTPDVTLEIKLPHGGETEVVYDPETGTATVVFRLPPDWLSAGG [r13_380_TrMRF]”, “SAGGSAMIEIEINGKKYKIEIVKVEEKDGKVKVKIKIKDKETGKEIEIEIEMPKEELEKLLKEILSSAGGSA [r15_944_TrROS_Hall]” is higher in “folding stability dG unfold” value: 2.25 ± 0.15 kcal/mol for the first, 3.65 ± 0.48 kcal/mol for the second.

Compared with “SAGGSAGGSAGGSGPPKLRLLRRVEVVYDGLVLPPNFPLPPSAPPNLKVFVSLVTLPEGSAGGSAGGSAGGS [r4_436_TrMRF]”, “SAGGSAGGSAGDDGSDLPVVDLKVSISPFVRPLPNGEEVTVWKVLVENPGSSSRSEFYFGSAGGSAGGSAGG [r17_59_TrMRF]” is lower in “folding stability dG unfold” value: 2.35 ± 0.43 kcal/mol for the first, 0.283 ± 0.15 kcal/mol for the second.

Compared with “SAGGSAGGSAGKKYKVKVILQPKGEDKPLEIEIEVESLEEAKELLEKAFPDTRIRIDVIESAGGSAGGSAGG [r17_428_TrMRF]”, “SAGGSAGGSKTPVFYIPPSLKDPEKAIELLEEIRKKIPPGTKIAVIAPGGGIPELKKAGLITASAGGSAGGS [r12_992_TrMRF]” is lower in “folding stability dG unfold” value: 2.59 ± 0.18 kcal/mol for the first, 0.472 ± 0.11 kcal/mol for the second.

Going from “SAGGETKTLTIKFYDPKTGKLVAEVTITYTPEKVTVTIRFADGTTETVEMTAEELLAKLPPGAVIVPSAGGS [r16_543_TrROS_Hall]” to “SMIKVGFNVTGLPEEAEAKAEELARELAEETGARVAGVELLEAVPHPDGGPETFNVLVTLEVPNPEAIEKSA [r9_302_TrMRF]”, the “folding stability dG unfold” value falls from 4.31 ± 0.16 kcal/mol to 1.72 ± 0.093 kcal/mol.

Going from “SAGKKVKKITLTIKNKETGEYYKAEVIENENGEKYIKIINKKTGKIYIFKIKDGKIEPVKEISLKDIKPSAG [r5_619_TrROS_Hall]” to “SAGGTLRNMPVEQIAKRLQNHGYEIKVENIRHNEDRVRIKIEVERRNKNGKPHEEVKISIEIPDPDDFSAGG [r13_566_TrROS]”, the “folding stability dG unfold” value falls from 2.83 ± 0.2 kcal/mol to 0.559 ± 0.27 kcal/mol.

Compared with “SAGGMKIKLKDGSEITIGSEPGRLVIVLRPPGPRSRKVIPFPVPSKEHGFVAAVNELLSLEDIEEIEPSAGG [r13_579_TrMRF]”, “SAGMIKPEEIVEKVKAIFEEEGLENVTVKVYYDEETDEIFVEVEVELEPEEEEKAQAILDKIKKELGLESAG [r5_9_TrMRF]” is higher in “folding stability dG unfold” value: 1.15 ± 0.2 kcal/mol for the first, 2.85 ± 0.21 kcal/mol for the second.

“SAGGSAKIDIEVDPEDGYIRIKLEVQHNDEPVKATMWYPLPDDGMFIRIRFDMPNGKIEEIETIPPSAGGSA [r2_331_TrROS]” and “SAGGSAGGSAGGKKVTITLKDANGKELKIEVKEGEEVTIEVGGKKYKLTVKDGKIELKPVSAGGSAGGSAGG [r7_510_TrROS_Hall]” are within error of each other in “folding stability dG unfold” value: 3.91 ± 0.27 kcal/mol for the first, 4.61 ± 0.44 kcal/mol for the second.

First: SAGGMKKITITIPLEELKNLTPEERKEKLKELAEEIAKKLGLPPGAKIKKIEVEEVDGKLYVKIEIESAGGS [r16_368_TrROS_Hall]
Second: SAGDPDRPVVVVIHYVDPETGEPRVEVFPADRIERIEVSPDGVLRIHLPAYGLEIDFPLDVVDHVDIASAGG [r19_416_TrMRF]
The “folding stability dG unfold” value of the first is higher: 3.92 ± 0.1 kcal/mol for the first, 2.12 ± 0.027 kcal/mol for the second.

First: SAGGKEIYVVRIEVYYPSNGKVEEKEYVIEATPEEAEELAKKIAEAFKEEAGEEVEVLRVEIKVYDLSAGGS [r16_140_TrMRF]
Second: SAGLGLEKAKKLAEKIAETLKKELEKELGIPADQIKVEAKVEKLPDGSYKITVKINLKDIPIEKVFYVDSAG [r14_226_TrMRF]
The “folding stability dG unfold” value of the first is higher: 4.65 ± 0.12 kcal/mol for the first, 2.87 ± 0.31 kcal/mol for the second.

Compared with “SKKYFLKIEIEIEVELRPLPDEPGYVVLRARIKIKITLVKVDPETGEIVEEKEFEIEIEIELVFPPGVKPSA [r9_1234_TrROS_Hall]”, “SAGGSAGGSAGGKWHLITFTITMEMYVMKFDPENGKWKPVDPIPMEIQITFLIPPGDPISAGGSAGGSAGGS [r10_610_TrROS]” is lower in “folding stability dG unfold” value: > 6 kcal/mol for the first, 4.65 ± 0.47 kcal/mol for the second.

First: SAGGSAEPPEVTVEVLSVEPTPDGYLVVERVVTTPDGVLVYRTVFRPPDGKPVGTDWALFPNPDALSAGGSA [r15_716_TrMRF]
Second: SAGGHTIMFPVKSPEQARDEIRDFARDQGLPIEPEDITIEQHEFKDPENGKKYRFFEITIDVTLKPPSAGGS [r16_587_TrROS]
The “folding stability dG unfold” value of the first is higher: 2.95 ± 0.12 kcal/mol for the first, 1.02 ± 0.15 kcal/mol for the second.

First: SAGGSAGGSAGGELNIDDIKIDWFPADDMDDRYIFTEKIRGPNGKPTMEVTFWLPAGDLSAGGSAGGSAGGS [r10_155_TrROS]
Second: SAEKKVLVKVKIEVFNEDGELVEELELEVEMSAEEVKKKIKEELLKLLKEKYPDKPLTIKVEVEVKELPSAG [r14_570_TrROS_Hall]
The “folding stability dG unfold” value of the first is lower: 0.00836 ± 0.18 kcal/mol for the first, 3.67 ± 0.23 kcal/mol for the second.
